Laboratory results reported in the DeepSol protein solubility set.

Experiment: soluble on expression in E. coli; label from the status in PepcDB or PDB records

| Sequence | soluble on expression in E. coli |
| --- | --- |
| MNALTPLSARLERSDGHALVTLARSRGAVRLRDLAQRGSAKAFLPRVEGDVPEVVFLNTSGGLTGGDRLSYRLEVGEGCRATATTQTAERAYAAGAGAARVEVLHEVGRDGWLDWLPQETILFEGAALERETQISLAPGAGCLMVESVVLGRAAMGETLSRLAFRDRRSILRGGKPVVVEPLALDDRALAAAGGAAMLGGARALATLAMVGPGAEDALGPARAALGEAGVEAAASAFDGKLVLRLLAADGWPLRRQVARLLTVLRGRALPRVWQVLEHHHHHH | not soluble |
| MAMTLVRRDARPMELTPFRTWSPFTLVDEVNRLFEEAFSDLVRPAAAYVAPADLYETDEALILEMAVPGMTPEDLEVSLEGNKLTIRGQVKPVADERVRRYYLQEMAHGSFVRTFTLPVEVDASGVKAEFRNGILRLTLPKVAEARARRIPIEVVQ | soluble |
| DSTITGASEKAEDAFKASYPAVYRYLEGYKDLLTKRNQAETGIRYEWYALQRWGANYWEDFSKPKIMWKRIGSILRFCYNENGALGLDSTCFAAGKG | not soluble |
| MAHHHHHHMSVFEARQKVYATLHGTFHAAIVQEVAVDAETGQYLYYVHYVEQDSRMDCWLPASELKERRQGRQASKQQTNKSGGGGITTRGQSRLVAGKEDEVSRGPNTPTSSAKRSNLQNCVKVSTTRARKDSSFFSRPKNIHSICMGPYEVATWYFSPYHLARPQIQQGLKQNAELFSGKMELQLRQENKKSAFQTAVVPTSFVLHICPFCLHPFTAHEDVVRHLQIVCPRHPPGNEIYRDPVRQLVVLEMDAVVEPVFCEHLALLSKLFLEHKALDHDMTPFLFYVLCAVQPHGLEVLGYFSKEKQSPEMYNLSCILVLPQFQSRGIGRFLIELSYELSRREGRIGSPEKPLSDLGEKLYLGYWGDVIVSALARAIEENHCATLEYLVQATYLSQADVLRTLQYLRLLNGTQIVVSEESIERCYSRRLHRERSGKNYVFYPHLLSWSPHMYYELKEQDVAPPIYVTQSEELEQNAASKGQRVF | not soluble |
| MIEADYLVIGAGIAGASTGYWLSAHGRVVVLEREAQPGYHSTGRSAAHYTVAYGTPQVRALTAASRAFFDNPPAGFCEHPLLSPRPEMVVDFSDDPEELRRQYESGKALVPQMRLLDAEQACSIVPVLRRDKVFGATYDPTGADIDTDALHQGYLRGIRRNQGQVLCNHEALEIRRVDGAWEVRCDAGSYRAAVLVNAAGAWCDAIAGLAGVRPLGLQPKRRSAFIFAPPPGIDCHDWPMLVSLDESFYLKPDAGMLLGSPANADPVEAHDVQPEQLDIATGMYLIEEATTLTIRRPEHTWAGLRSFVADGDLVAGYAANAEGFFWVAAQGGYGIQTSAAMGEASAALIRHQPLPAHLREHGLDEAMLSPRRLSPLEHHHHHH | not soluble |
| MAHHHHHHMKGKGPIKIVLFGAPGVGKGTFAEILSKKENLKHINMGNILREEIKRKTTIGKEIDKVVTSGNLVGDDLIIRIVKDEIAKVTIQKDCYFKGFILDGFPRNLFQCNELAKITNIDLFINIYMPRHILIKKIMGRRICNDCNRNFNVVHIREDSYDMLPILPPQDCETCKGNPKLQTRSDDSEEIVAHRLNTYELTNSPLINFFKNSNCNFVDFEIKRGLQDFDSFYRIVSQNL | not soluble |
| MADNPTNLRNADFRKLLTSARSDRPAVSAFAKPADPKTGDDKPASFKHKHLKPAKFKKPQAAAHGKAKKEKTEADEDEAALKNILKNYRDRAAERRKQGDEKEDPSKLTAAYRAVPGDARSAQDQADLRKQAILESKYLGGDLEHTHLVKGLDYSLLNKVRSEIDKSDDDDDDDIDTAFDEKVTSSSSSSKPSEASLLAQELAQSHSENRMVRSLHRVLFKNEVPLHNQLFAKGRMAYVVELEDEETDIPTTLLRSLHDLPRAESAQSIQANNLIILKLSHVLSHLRAEPKKKKKEEFRVQLGSRDAPGAAAAAPGAKGDSIYDDLDDYVPSRKSRDSRDAGRRGSRRDRSRDRSRDRDRDRDRDNRDRYFEKSANSRREEEQNRREQQRERERAEQERRREREKEREQEKAKEREKKRKELEESSGYDECYPGGLVEMGGAWDSDEEADYSKMDAGPKKNQAVNRWDFDTEEEYASYMEGREALPKAAYQYGVKNGEGGRKNKKQSAVSDAKRLDRELNEINKIMDKRKAGGDGAGGGGDYKKPKY | not soluble |
| VLNHSIEVALLAGYMASELGLNADKARRGGLLHDIGKAVDQELEGSHTTIGAELARRYGEKEDIINMILSHHGEEEPMTP | not soluble |
| MGSDKIHHHHHHMRFFIAIYEENNITAAATRCYVSQPSLSAGLKQLEEELGGPLFERSKKGVKALDSAHYLYPLAVKLVEEASKLPALFMAKASRQKLRLAVMPDLSQRRLAGLLTQINQAISHLDLELVDYQSTADCRLTLDSLRHEDEVFFPLWEEDYVLCVPTEHPLAQANRIRPEELSQYDFIECPPCEAHQQTIGLLACSNLSLNLVAKADSKSLVMSLVLAGFGVSFLPDGLIEDEPRLKQIKFDGPRMFRRIGLCYPSHQAVAPTLAKLLRYLTQATA | not soluble |
| GSPEFMDDIFTQCREGNAVAVRLWLDNTENDLNQGDDHGFSPLHWACREGRSAVVEMLIMRGARINVMNRGDDTPLHLAASHGHRDIVQKLLQYKADINAVNEHGNVPLHYACFWGQDQVAEDLVANGALVSICNKYGEMPVDKAKAPLRELLRERAEKMGQNLNRIPYKDTFWKGTTR | soluble |
| SAAIYSLYIINKSGGLIFYKDCGTKGRMDTNDSLRVASLWHSMHAISQQLSPVNGCSGIELLEADTFDLHCFQSLPGTKFFVVCEPGTPHMESLLRYIYELYTDYVLKNPFYEIEMPIRCELFDINLTQAVQSDRVALLGR | soluble |
| MTSIGTGYDLSNSVFSPDGRNFQVEYAVKAVENGTTSIGIKCNDGVVFAVEKLITSKLLVPQKNVKIQVVDRHIGCVYSGLIPDGRHLVNRGREEAASFKKLYKTPIPIPAFADRLGQYVQAHTLYNSVRPFGVSTIFGGVDKNGAHLYMLEPSGSYWGYKGAATGKGRQSAKAELEKLVDHHPEGLSAREAVKQAAKIIYLAHEDNKEKDFELEISWCSLSETNGLHKFVKGDLLQEAIDFAQKEINGDDDEDEDDSDNVMSSDDENAPVATNANATTDQEGDIHLE | soluble |
| MSLLPVNNPPLSTGNVSFYRTTSIDNVHNNYLSEWVEWTKNSISGENRETAFTRLQLCLENSETSLDLSCLGLRSLPRLPDNLDEINVSNNQLSMLPELPRALKELNASSNQLSALPELPVSLEYINVSDNHLFALPELPASLEYINVSDNHLSVLPRLPMSLELLDAARNALEVIPDFPERDDHIIRIFWLNQNRITAIPESILGLSSDSVVNLRENQLSPRIMQTLLQQTAQPDYHGPRIYFSMSDGQQNTLHRPLADAVTAWFPENKQSDVSQIWHAFEHEEHANTFSAFLDRLSDTVSARNTSGFREQVAAWLEKLSASAELRQQSFAVAADATESCEDRVALTWNNLRKTLLVHQASEGLFDNDTGALLSLGREMFRLEILEDIARDKVRTLHFVDEIEVYLAFQTMLAEKLQLSTAVKEMRFYGVSGVTANDLRTAEAMVRSREENEFTDWFSLWGPWHAVLKRTEADRWAQAEEQKYEMLENEYPQRVADRLKASGLSGDADAEREAGAQVMRETEQQIYRQLTDEVLALRLSENGSQLHHSEGHHHHHH | soluble |
| GMSIPANNSPVRLALIGAGRWGKNYIRTIAGLPGAALVRLASSNPDNLALVPPGCVIESDWRSVVSAPEVEAVIIATPPATHAEITLAAIASGKAVLVEKPLTLDLAEAEAVAAAAKATGVMVWVEHTQLFNPAWEALKADLTSIGPILAVRSEAGNHGPYRPGGVPMLWDWGAHDVSMVLDLMGRDPDSTSASWAARGEKDGGEAGDVTLTLAFSTVEAHIRLCNTMDKCRRLAVFGEAGTLVMDDRATDKLTLHPPQPDGNWPVGQGHALTVTDEMPLTRAVRLFAGAVRQPEPGPSPLELGLRVVRVLGACS | soluble |
| AHHHHHHGSSAKLERIVEEISVAFVGHEDVVRKVLSAALANGNVLFEDNPGLGKTLLAKAFAKVLGLEYRRVQFTPDLLPSDILGTKVWRPEKGTFEIVKGPIFTNVLLADEINRAPPKTQSALLEAMEERQVTIEGETFVLERPFFVIATQNPLEFEGTYPLPEAQLDRFLVRMSIGYPKNESEEVEILKARLRWGKDDPTTDLKPAITKSEFLKMQEDVERNVKIHEDILKYIVRIVRTIREDERVEAGPSPRGGLALMKLAKANAYVEGRDYVIPDDVKEFAIEALAHRIFLKPEYSLEKGIEIEIVREALESVPVPKDLKY | not soluble |
| MSLNFTEDGTLPLLGSKDAKIAIIEFSDFQCPYCKRFTDSAFKQIKENYIDTGKVQYIARDFPLSFHAKAMGAAIAATCSLHQNSYWPMRDMLFSNVKDLGEELYQKAATDLSLNLEEFNKCMKDKSIANKVEQDLTLGKSLGIRGTPSFLIGRVENDQLIEPQIVVGAQRYAVFESLLEQLSNSDKAKEGHHHHHH | soluble |
| GPGSMSYSGRKLKYFVEDSDGWLRRNQQVAEQFVMAEDDRETKEMLSLLAPRAHFASFWGVVRGLPAAVALQAQEREHLRITWTSGLQPLTSRTFARNGYVHVLDRERMSFIPVLGPWLSSFFQRPVQELLVVREGRVVFRGMGYVWDIGKH | not soluble |
| TQQPQQDEMPSPTFLTQVKESLSSYWESAKTAAQNLYEKTYLPAVDEKLRDLYSKSTAAMSTYTGIFTDQVLSVLKGEE | soluble |
| MTGKLPKACVIGAGCSGFTTIKRLKDYGIPYDCFEMSDEVGGNWYYKNPNGLSACYESLHIDTSKWRLAFEDFPVPKDWPDFPHHAQLFQYFKDYVDHFGLRPTITFNTKVESAKRTADGLWAVTLSGGETQFYDVLFVCNGHHWDPRVPEYPGEFDGPAFHAHAYCDPFDPVDMRGKNVVVVGMGNSAMDIASELSQRPIAKNLWVSARRGVWVFPKYLNGKPADKTALPAWMPRKLGVALSRSVLKKTIGRMEDYGLPKPDHEPLEAHPSVSGEFLTRAGCGDIKFKPAIKALEGKRVRFTDDSVEDVDAIVFATGYKISFPFFDDPALLPDADHRLPLFKRMMKPEVPNLFYMGLAQPLPTLVNFAEQQAKLAAAYLAGQYALPPPAEMARITAKDEHRHTGHFYDSARHTIQVDFNVYCADLKKEIAKGEARARNAGGKLPVAARAEGQALAAELEHHHHHH | soluble |
| MIEGIIEEIRTNGSFLITTHENPDGDAVGSSLALAGYLRRLGKDVTIHFCDPVPDLYAFLPLAEEVTRTVPDRDYDICFVLDVGEFRRAGKQIAECKRIKKFINIDHHLTSDNFGFINYIDPKAAATGILVHRIITGAGDVVGYETALCLYTAIITDTGSFRYSNANPEAFAIAGELVSTGINTWSIAEKLYESQPRERLELLALALSTLTISPRGEYASITVTLDMYNKTGASAELTDGFVNYPRSIRGVEVSVFFREINPGLFKVGFRSKGKIDVSRIAAAFGGGGHHNAAGATMNGSLEGIKATLFSHLESTLLEHHHHHH | not soluble |
| MIFVLDVGNTNAVLGVFEEGELRQHWRMETDRHKTEDEYGMLVKQLLEHEGLSFEDVKGIIVSSVVPPIMFALERMCEKYFKIKPLVVGPGIKTGLNIKYENPREVGADRIVNAVAGIHLYGSPLIIVDFGTATTYCYINEEKHYMGGVITPGIMISAEALYSRAAKLPRIEITKPSSVVGKNTVSAMQSGILYGYVGQVEGIVKRMKEEARQEPKVIATGGLAKLISEESNVIDIVDPFLTLKGLYMLYERNANLQHEKGE | not soluble |
| RTNQAGLELIGNAEGCRRDPYMCPAGVWTDGIGNTHGVTPGVRKTDQQIAADWEKNILIAERCINQHFRGKDMPDNAFSAMTSAAFNMGCNSLRTYYSKARGMRVETSIHKWAQKGEWVNMCNHLPDFVNSNGVPLRGLKIRREKERQLCLTGLVNEHHHHHH | soluble |
